The text below walks through data of patent US20240092919A1 (Ablynx, published 2024).

Experiment [1] has as its target T1, Cynomolgus TCR(AEA41865/AEA41866)-zipper protein (cynomolgus monkey).
T1 construct: also called cyTCR-zipper; cynoTCR-zipper protein
T1 TCR alpha: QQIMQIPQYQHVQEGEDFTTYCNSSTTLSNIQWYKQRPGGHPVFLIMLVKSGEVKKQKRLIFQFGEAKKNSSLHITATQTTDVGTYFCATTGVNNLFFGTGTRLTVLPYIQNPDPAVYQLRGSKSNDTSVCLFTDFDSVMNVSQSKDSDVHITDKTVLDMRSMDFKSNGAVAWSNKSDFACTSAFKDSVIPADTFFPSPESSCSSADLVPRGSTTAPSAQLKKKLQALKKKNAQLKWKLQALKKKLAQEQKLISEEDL
T1 TCR beta: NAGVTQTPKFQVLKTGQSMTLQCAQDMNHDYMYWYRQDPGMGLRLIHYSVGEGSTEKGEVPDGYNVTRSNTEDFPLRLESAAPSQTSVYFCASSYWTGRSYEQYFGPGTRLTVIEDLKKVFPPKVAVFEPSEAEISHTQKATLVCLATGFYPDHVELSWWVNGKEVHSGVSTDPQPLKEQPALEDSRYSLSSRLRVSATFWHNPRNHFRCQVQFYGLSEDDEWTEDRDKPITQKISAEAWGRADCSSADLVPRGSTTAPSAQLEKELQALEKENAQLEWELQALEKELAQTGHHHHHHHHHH
The experiment is described as follows: BLI (Octet RED384), KD on cyTCR-zipper against KD on huTCR-zipper. The protocol: Affinity constants (KD) were calculated applying a 1:1 interaction model using the ForteBio Data Analysis software.
On the technique in general: In BLI a coated tip is dipped into the sample, and binding shifts an interference pattern.

Experiment [2] addresses T2, Cynomolgus T cell receptor on the HSC-F cynomolgus T cell line (cynomolgus monkey).
T2 construct: whole, on cells; also called HSC-F cells; HSC-F cyno T cell line (NIBIO JCRB1164)
The experiment is described as follows: flow cytometry competition with Flag3-His6-tagged anti-TCR ISVD ligand, HSC-F cells. In general terms: Flow cytometry measures light scatter and fluorescence of single cells or particles in a stream.
Procedure: (§1) Subsequently, cells were resuspended in FACS buffer supplemented with 1 μg/ml Propidium Iodide (PI, Sigma, P4170) to distinguish live from dead cells. Cells were analyzed using a FACS Array flow cytometer (BD Biosciences) using Flowing Software. First a P1 population which represented more than 80% of the total cell population was selected based on FSC-SSC distribution. In this gate, 10000 cells were counted during acquisition. From this population the Propidium iodide or TO-PRO©-3 Iodide positive cells (dead cells) were excluded and the median or Mean PE value was calculated.

Experiment [3] has as its target T3, Cynomolgus TCR(AEA41865/AEA41866)-zipper protein (cynomolgus monkey).
T3 construct: also called cyTCR-zipper protein; cynoTCR zipper
T3 TCR alpha: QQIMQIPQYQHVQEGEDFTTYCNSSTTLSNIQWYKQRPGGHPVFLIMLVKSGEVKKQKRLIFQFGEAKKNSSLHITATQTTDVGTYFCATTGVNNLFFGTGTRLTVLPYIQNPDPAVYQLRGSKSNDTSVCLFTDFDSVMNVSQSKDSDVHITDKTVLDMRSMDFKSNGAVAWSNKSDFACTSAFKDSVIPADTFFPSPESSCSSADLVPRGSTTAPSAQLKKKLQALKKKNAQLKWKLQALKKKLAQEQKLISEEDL
T3 TCR beta: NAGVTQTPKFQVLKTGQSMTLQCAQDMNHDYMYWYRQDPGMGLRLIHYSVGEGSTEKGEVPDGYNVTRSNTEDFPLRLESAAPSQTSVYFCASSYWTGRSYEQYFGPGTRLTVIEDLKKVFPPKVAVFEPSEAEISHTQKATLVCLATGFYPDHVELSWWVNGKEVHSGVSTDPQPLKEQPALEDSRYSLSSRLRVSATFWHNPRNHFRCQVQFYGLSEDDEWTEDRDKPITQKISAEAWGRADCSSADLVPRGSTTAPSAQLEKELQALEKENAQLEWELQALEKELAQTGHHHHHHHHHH
Put plainly: SPR, ProteOn XPR36, 37 C, immobilised TCR-zipper.
Source text: In brief, huTCR-zipper or cyTCR-zipper protein was immobilized on a GLC sensor chip (between 100-200 RU) via amine coupling chemistry, using EDC/NHS for activation of the carboxyl groups on the chip surface (running buffer: HBS-EP+, pH7.4). […] Processed sensorgrams were fitted with the Langmuir model (1:1 interaction) using ProteOn Manager 3.1.0 (Version 3.1.0.6) software.

Experiment [4] concerns the target T4, Human T cell receptor on human primary T cells (human, UniProt P01848 1-140; P01850 1-176).
T4 construct: whole, on cells
T4 TCR alpha (looked up): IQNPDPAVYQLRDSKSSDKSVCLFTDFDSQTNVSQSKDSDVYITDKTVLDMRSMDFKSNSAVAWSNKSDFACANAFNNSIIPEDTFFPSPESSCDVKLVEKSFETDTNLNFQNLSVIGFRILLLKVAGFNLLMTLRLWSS
T4 TCR beta (looked up): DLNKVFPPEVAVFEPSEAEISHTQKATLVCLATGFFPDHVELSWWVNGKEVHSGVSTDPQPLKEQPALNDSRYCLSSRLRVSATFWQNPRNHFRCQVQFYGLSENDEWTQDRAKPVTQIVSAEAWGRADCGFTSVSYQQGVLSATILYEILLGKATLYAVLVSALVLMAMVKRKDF
Put plainly: flow cytometry competition with Flag3-His6-tagged anti-TCR ISVD ligand, human primary T cells.
Procedure: as §1

Experiment [5] addresses T1, Cynomolgus …. Put plainly: SPR (ProteOn XPR36), KD on cyTCR-zipper against KD on huTCR-zipper.
Source text: HuTCR-zipper or cyTCR-zipper protein was immobilized on a GLC sensor chip (between 100-200 RU) via amine coupling chemistry, using EDC/NHS for activation of the carboxyl groups on the chip surface (running buffer: HBS-EP+, pH7.4). […] Processed sensorgrams were fitted with the Langmuir model (1:1 interaction) using ProteOn Manager 3.1.0 (Version 3.1.0.6) software.
Experiment [6] concerns the target T1, Cynomolgus …. The experiment is described as follows: SPR (ProteOn XPR36, 37°C), KD on huTCR-zipper against KD on cyTCR-zipper.

B1: T0170056G05 (VHH, not shown: small tags and cut ends)
VHH: EVQLVESGGGLVQPGGSLRLSCVASGDVHKINFLGWYRQAPGKEREKVAHISIGDQTDYADSAKGRFTISRDESKNMVYLQMNSLKPEDTAVYFCRAFSRIYPYDYWGQGTLVTVSS
notes: also called T01700056G05; parental anti-TCR ISVD
Regarding B1, the “difference in human-cynomolgus cross-reactivity based on KD” value in experiment [1] was found to be 4.5 fold.

B2: T017000680 (VHH)
VHH: DVQLVESGGGVVQPGGSLRLSCVASGYVHKINFYGWYRQAPGKEREKVAHISIGDQTDYADSAKGRFTISRDESKNTVYLQMNSLRPEDTAAYYCRALSRIWPYDYWGQGTLVTVSS
On to B2, for which the values for the IC50 in experiment [2] and in experiment [4] were 730 nM and 100 nM, respectively. The molecule also showed a Kd in experiment [3] of 4.9 nM.

B3: T017000624 (VHH, not shown: small tags and cut ends)
VHH: EVQLVESGGGVVQPGGSLRLSCVASGYVHKINFYGWYRQAPGKEREKVAHISIGDQTDYADSAKGRFTISRDESKNTVYLQMNSLRPEDTALYYCRALSRIWPYDYWGQGTLVTVSS
Take B3: the “difference in human-cynomolgus cross-reactivity based on KD” value in experiment [5] is 2.6 fold.

B4: T017000680 (VHH)
VHH: DVQLVESGGGVVQPGGSLRLSCVASGYVHKINFYGWYRQAPGKEREKVAHISIGDQTDYADSAKGRFTISRDESKNTVYLQMNSLRPEDTAAYYCRALSRIWPYDYWGQGTLVTVSS
With B4, the “delta for human-cynomolgus cross-reactivity based on KD” value in experiment [6] is 1.8 fold.

In general, IC50 refers to the concentration needed to halve the response being measured. For orientation: Kd means the free concentration of one partner at which half of the binding sites on the other are occupied at equilibrium, for simple one-to-one binding. Read a low Kd as higher affinity.
